Results on nine substances are retold here after IntAct's records for PubMed 17721439.

The target in experiment [1] is wnk4_human WNK4 (UniProt Q96J92).
Experiment [2] has the same target. The source holds these as a separate data set.
For experiment [3] the target is unchanged. The source holds these as a separate data set.
The target in experiment [4] is wnk1_human WNK1 (UniProt Q9H4A3).
Experiment [5] deals with SLC12A2 (UniProt P55011).
For experiment [6], the target named is wnk4_human WNK4 (UniProt Q96J92). This is another data set of the same source.
For experiment [7] the target is unchanged. The source holds these as a separate data set.
The target is the same in experiment [8]. This is another data set of the same source.
Experiment [9] has the same target. This is another data set of the same source.
Experiment [10] has the same target. The source holds these as a separate data set.
The target in experiment [11] is wnk1_human WNK1 (UniProt Q9H4A3). The source holds these as a separate data set.
Experiment [12] has as its target SLC12A2 (UniProt P55011). The source holds these as a separate data set.
In experiment [13] the target is wnk4_human WNK4 (UniProt Q96J92). The source holds these as a separate data set.

wnk4_human WNK4, sequence (Q96J92 whole entry): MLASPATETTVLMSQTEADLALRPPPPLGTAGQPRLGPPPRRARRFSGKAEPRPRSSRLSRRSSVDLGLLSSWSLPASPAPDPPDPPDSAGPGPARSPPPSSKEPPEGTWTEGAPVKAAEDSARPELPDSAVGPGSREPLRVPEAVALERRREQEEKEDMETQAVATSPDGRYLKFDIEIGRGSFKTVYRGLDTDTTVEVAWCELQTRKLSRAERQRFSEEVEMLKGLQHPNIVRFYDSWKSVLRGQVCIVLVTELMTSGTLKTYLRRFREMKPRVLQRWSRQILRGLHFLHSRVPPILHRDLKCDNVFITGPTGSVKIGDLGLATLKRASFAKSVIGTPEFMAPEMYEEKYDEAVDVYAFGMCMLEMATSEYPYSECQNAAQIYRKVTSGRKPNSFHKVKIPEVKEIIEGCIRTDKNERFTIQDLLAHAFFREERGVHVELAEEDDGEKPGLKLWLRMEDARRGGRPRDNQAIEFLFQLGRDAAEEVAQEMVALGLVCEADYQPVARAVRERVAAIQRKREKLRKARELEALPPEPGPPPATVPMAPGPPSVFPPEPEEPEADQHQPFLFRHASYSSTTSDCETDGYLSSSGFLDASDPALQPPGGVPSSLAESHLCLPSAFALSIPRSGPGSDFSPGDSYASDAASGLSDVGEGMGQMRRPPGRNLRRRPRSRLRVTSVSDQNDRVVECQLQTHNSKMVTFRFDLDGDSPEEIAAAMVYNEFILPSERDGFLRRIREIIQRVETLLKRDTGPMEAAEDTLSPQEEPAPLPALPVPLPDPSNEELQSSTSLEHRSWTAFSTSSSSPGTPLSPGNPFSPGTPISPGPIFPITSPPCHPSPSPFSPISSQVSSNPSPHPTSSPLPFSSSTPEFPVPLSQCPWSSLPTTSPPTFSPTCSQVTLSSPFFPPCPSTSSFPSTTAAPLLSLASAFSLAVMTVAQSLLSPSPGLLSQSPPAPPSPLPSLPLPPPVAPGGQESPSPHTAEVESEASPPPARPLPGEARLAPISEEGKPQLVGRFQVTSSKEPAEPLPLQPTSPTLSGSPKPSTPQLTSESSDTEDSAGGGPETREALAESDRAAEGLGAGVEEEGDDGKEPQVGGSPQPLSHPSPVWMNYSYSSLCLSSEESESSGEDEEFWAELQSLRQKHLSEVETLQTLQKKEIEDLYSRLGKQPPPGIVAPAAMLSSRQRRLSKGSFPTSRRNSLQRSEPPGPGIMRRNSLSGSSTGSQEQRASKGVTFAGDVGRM
Serine/threonine-protein kinase OSR1 (Homo sapiens), O95747 D459A, sequence (O95747 whole entry D459A): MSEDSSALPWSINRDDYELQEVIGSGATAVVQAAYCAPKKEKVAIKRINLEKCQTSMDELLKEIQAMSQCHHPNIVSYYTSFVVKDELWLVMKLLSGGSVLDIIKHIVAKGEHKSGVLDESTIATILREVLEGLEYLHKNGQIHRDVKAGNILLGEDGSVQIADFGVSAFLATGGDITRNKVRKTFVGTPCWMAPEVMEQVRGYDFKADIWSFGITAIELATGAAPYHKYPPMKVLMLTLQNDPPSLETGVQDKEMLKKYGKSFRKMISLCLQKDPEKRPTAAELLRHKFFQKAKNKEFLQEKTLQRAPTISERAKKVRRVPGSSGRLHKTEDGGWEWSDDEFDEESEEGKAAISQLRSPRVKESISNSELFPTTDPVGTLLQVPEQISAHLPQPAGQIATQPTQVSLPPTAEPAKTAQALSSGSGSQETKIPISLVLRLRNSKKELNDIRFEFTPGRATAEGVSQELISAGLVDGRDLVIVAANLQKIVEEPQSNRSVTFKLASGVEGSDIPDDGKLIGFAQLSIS
Serine/threonine-protein kinase OSR1 (Homo sapiens), O95747 L473A, sequence (O95747 whole entry L473A): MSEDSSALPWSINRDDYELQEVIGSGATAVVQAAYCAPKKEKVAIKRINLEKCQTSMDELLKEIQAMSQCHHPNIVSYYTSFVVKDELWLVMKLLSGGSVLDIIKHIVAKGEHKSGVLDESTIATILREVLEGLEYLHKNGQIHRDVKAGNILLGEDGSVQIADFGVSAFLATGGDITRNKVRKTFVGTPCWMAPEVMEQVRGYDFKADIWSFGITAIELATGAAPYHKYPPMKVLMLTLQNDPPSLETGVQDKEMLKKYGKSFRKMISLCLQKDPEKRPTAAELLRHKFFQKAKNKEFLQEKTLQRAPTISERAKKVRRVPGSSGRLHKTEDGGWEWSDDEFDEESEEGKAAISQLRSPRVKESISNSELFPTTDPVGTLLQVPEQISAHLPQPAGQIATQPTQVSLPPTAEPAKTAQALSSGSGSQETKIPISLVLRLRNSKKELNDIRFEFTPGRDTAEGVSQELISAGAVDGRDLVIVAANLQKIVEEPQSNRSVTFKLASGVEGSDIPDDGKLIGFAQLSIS
wnk1_human WNK1, sequence (Q9H4A3 whole entry, looked up): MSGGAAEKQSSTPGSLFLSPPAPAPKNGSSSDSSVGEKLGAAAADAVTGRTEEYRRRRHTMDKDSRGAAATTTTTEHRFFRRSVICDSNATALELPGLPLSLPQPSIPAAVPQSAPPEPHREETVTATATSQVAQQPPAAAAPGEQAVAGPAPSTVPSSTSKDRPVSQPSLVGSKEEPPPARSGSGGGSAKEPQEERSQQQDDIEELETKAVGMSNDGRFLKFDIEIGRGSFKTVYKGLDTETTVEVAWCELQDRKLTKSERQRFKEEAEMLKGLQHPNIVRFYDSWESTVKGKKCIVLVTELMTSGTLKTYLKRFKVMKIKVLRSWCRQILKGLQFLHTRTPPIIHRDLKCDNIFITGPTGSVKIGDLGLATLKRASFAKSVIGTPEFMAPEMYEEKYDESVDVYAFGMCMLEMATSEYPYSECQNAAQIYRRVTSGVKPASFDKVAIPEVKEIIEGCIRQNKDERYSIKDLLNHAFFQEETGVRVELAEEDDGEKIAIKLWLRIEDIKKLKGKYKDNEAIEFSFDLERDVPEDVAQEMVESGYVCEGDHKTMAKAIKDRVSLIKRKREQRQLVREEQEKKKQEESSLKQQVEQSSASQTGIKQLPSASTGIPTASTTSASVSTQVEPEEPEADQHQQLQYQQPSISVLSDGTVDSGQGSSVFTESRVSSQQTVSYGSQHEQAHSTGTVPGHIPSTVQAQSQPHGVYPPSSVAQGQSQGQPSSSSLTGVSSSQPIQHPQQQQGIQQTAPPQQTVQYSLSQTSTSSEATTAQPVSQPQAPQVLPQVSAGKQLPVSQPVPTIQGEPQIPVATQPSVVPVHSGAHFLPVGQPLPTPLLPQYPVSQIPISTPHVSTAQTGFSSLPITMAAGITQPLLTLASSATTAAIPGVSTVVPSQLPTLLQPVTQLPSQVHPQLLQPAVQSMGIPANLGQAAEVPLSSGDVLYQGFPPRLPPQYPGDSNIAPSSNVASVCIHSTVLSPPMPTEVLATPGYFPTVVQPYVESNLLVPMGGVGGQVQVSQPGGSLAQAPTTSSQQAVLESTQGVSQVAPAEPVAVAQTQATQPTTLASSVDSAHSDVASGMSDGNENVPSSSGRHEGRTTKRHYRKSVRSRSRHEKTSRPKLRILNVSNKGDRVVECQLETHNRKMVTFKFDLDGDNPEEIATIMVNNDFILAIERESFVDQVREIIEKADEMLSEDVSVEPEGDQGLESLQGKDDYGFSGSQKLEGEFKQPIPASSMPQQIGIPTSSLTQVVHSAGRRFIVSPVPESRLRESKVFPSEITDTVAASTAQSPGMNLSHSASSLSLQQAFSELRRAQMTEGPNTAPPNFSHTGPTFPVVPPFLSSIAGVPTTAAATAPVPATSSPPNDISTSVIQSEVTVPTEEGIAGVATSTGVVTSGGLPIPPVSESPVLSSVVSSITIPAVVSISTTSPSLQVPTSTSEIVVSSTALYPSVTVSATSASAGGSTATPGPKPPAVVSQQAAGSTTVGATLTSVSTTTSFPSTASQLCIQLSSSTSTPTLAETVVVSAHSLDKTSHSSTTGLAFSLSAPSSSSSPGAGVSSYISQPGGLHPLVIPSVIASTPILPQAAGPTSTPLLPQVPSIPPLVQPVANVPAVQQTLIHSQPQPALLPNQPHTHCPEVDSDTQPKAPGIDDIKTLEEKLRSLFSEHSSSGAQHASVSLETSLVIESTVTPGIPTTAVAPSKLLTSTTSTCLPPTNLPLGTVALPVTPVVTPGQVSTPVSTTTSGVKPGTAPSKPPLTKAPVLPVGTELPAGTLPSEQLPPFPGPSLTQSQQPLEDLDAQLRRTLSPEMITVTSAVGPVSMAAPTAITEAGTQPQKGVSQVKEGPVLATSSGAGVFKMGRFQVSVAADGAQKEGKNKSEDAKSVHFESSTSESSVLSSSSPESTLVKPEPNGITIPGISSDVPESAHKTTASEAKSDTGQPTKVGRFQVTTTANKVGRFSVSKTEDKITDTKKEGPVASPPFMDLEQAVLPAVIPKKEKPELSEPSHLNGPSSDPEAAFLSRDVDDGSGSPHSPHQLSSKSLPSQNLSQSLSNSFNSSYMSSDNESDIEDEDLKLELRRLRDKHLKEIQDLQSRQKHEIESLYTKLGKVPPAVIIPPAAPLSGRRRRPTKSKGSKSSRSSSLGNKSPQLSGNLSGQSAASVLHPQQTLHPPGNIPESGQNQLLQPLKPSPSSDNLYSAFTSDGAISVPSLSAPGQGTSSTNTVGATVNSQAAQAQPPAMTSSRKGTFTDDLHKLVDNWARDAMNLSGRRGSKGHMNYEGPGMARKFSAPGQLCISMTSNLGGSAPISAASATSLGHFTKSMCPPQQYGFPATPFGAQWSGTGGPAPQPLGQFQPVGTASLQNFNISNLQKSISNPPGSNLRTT

On to “Serine/threonine-protein kinase OSR1 (Homo sapiens), O95747 A471L”, for which the “effect of a mutation on the interaction” value in experiment [1] is listed as “decreasing interaction”.
Regarding “Serine/threonine-protein kinase OSR1 (Homo sapiens), O95747 D449A”, the “effect of a mutation on the interaction” value in experiment [2] is on record as “decreasing interaction”.
As for “Serine/threonine-protein kinase OSR1 (Homo sapiens), O95747 D459A”, the “effect of a mutation on the interaction” value in [3], in [4] and in [5] was “disrupting interaction” in each case.
In the case of “Serine/threonine-protein kinase OSR1 (Homo sapiens), O95747 E446A”, the “effect of a mutation on the interaction” value in experiment [6] is on record as “decreasing interaction”.
For “Serine/threonine-protein kinase OSR1 (Homo sapiens), O95747 E467A”, in experiment [7], the “effect of a mutation on the interaction” value was “disrupting interaction”.
As to “Serine/threonine-protein kinase OSR1 (Homo sapiens), O95747 I450A”, in [8], the “effect of a mutation on the interaction” value is “disrupting interaction”.
Turning to “Serine/threonine-protein kinase OSR1 (Homo sapiens), O95747 L468F”, the “effect of a mutation on the interaction” value in experiment [9] was “disrupting interaction”.
For the substance “Serine/threonine-protein kinase OSR1 (Homo sapiens), O95747 L473A”, the “effect of a mutation on the interaction” value in [10], in [11] and in experiment [12] was “disrupting interaction” in each case.
For the substance “Serine/threonine-protein kinase OSR1 (Homo sapiens), O95747 R451A”, the “effect of a mutation on the interaction” value in experiment [13] is given as “decreasing interaction”.
